Target: cleaved human IgG (human IgG cleaved with the endopeptidases IdeE and IdeE2) (human)
Assay: cell-based or functional assay

recombinant mature EndoSe of Streptococcus equi subsp. equi (lacking the N-terminal signal sequence) (enzyme)
lowest EndoSe concentration at which activity was observed (SDS-PAGE): 2.6 µg/mL
